{"source": "paper PMC6145892", "about": "“Roquin targets mRNAs in a 3′-UTR-specific manner by different modes of regulation”", "key": {"[1]": {"molecular_target": "T1, Roquin-1 zinc finger (Znf, CCCH) (UniProt Q4VGL6 411-454)", "T1 chain": "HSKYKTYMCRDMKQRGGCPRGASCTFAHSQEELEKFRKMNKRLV", "assay": "ITC; Zn2+; n=0.5; ITC at room temperature, RNA titrated into 10-40 uM protein; buffer 20 mM Tris pH 7.0, 150 mM NaCl, 25 uM ZnCl2, 2 mM TCEP, 0.02% azide (stated for Znf); NMR HSQC 50 uM protein, RT, 10% D2O", "settings": "protein: recombinant; tags: His6-GST removed by TEV; chain copies: 2; single-stranded, no imino signals"}, "Roquin-1 ROQ domain [2]": {"molecular_target": "T2, Roquin-1 ROQ domain (UniProt Q4VGL6 171-326)", "T2 sequence": "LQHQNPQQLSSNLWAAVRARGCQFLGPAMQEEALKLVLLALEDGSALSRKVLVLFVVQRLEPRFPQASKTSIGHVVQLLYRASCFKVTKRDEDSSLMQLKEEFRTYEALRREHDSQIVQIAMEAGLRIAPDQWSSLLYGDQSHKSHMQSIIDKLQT", "assay": "ITC; n=0.81; ITC at room temperature, RNA titrated into 10-40 uM protein; buffer 20 mM Tris pH 7.0, 150 mM NaCl, 25 uM ZnCl2, 2 mM TCEP, 0.02% azide (stated for Znf); NMR HSQC 50 uM protein, RT, 10% D2O", "settings": "protein: recombinant; tags: His6-thioredoxin, TEV-removable; single-stranded, no imino signals"}, "Roquin-1 ROQ domain [3]": {"molecular_target": "T2, Roquin-1 ROQ domain", "assay": "ITC; complete loss of binding; ITC at room temperature, RNA titrated into 10-40 uM protein; buffer 20 mM Tris pH 7.0, 150 mM NaCl, 25 uM ZnCl2, 2 mM TCEP, 0.02% azide (stated for Znf); NMR HSQC 50 uM protein, RT, 10% D2O", "settings": "protein: recombinant; tags: His6-thioredoxin, TEV-removable; single-stranded"}, "[4]": {"molecular_target": "T1, Roquin-1 zinc finger (Znf, CCCH)", "assay": "ITC; Zn2+; n=0.48; ITC at room temperature, RNA titrated into 10-40 uM protein; buffer 20 mM Tris pH 7.0, 150 mM NaCl, 25 uM ZnCl2, 2 mM TCEP, 0.02% azide (stated for Znf); NMR HSQC 50 uM protein, RT, 10% D2O", "settings": "protein: recombinant; tags: His6-GST removed by TEV; chain copies: 2; single-stranded"}, "[5]": {"molecular_target": "T1, Roquin-1 zinc finger (Znf, CCCH)", "assay": "ITC; Zn2+; n=1.0; ITC at room temperature, RNA titrated into 10-40 uM protein; buffer 20 mM Tris pH 7.0, 150 mM NaCl, 25 uM ZnCl2, 2 mM TCEP, 0.02% azide (stated for Znf); NMR HSQC 50 uM protein, RT, 10% D2O", "settings": "protein: recombinant; tags: His6-GST removed by TEV; chain copies: 2; single-stranded"}, "[6]": {"molecular_target": "T1, Roquin-1 zinc finger (Znf, CCCH)", "assay": "ITC; Zn2+; n=0.45; ITC at room temperature, RNA titrated into 10-40 uM protein; buffer 20 mM Tris pH 7.0, 150 mM NaCl, 25 uM ZnCl2, 2 mM TCEP, 0.02% azide (stated for Znf); NMR HSQC 50 uM protein, RT, 10% D2O", "settings": "protein: recombinant; tags: His6-GST removed by TEV; chain copies: 2; single-stranded"}, "[7]": {"molecular_target": "T1, Roquin-1 zinc finger (Znf, CCCH)", "assay": "ITC; Zn2+; ITC at room temperature, RNA titrated into 10-40 uM protein; buffer 20 mM Tris pH 7.0, 150 mM NaCl, 25 uM ZnCl2, 2 mM TCEP, 0.02% azide (stated for Znf); NMR HSQC 50 uM protein, RT, 10% D2O", "settings": "protein: recombinant; tags: His6-GST removed by TEV; chain copies: 2; single-stranded"}}, "data": [{"binder": "UUUUAACAUUAUUUU (ssRNA)", "note": "[LBE (Nfkbiz 3'-UTR 15-mer)]", "values": [{"measurement": "Kd", "setting": "[1]", "value": "26.3 ± 3.4", "unit": "µM"}, {"measurement": "Kd", "setting": "Roquin-1 ROQ domain [2]", "value": "3.6 ± 0.4", "unit": "µM"}]}, {"binder": "UUUUAAGCGUAUUUU (ssRNA)", "note": "[LBE mutant (GCG)]", "values": [{"measurement": "binding result", "setting": "Roquin-1 ROQ domain [3]", "value": "no binding"}, {"measurement": "Kd", "setting": "[4]", "value": "21.4 ± 3.6", "unit": "µM"}]}, {"binder": "UUUUAACAU (ssRNA)", "note": "[LBE 5'-half 9-mer]", "values": [{"measurement": "Kd", "setting": "[5]", "value": "35.6 ± 6.8", "unit": "µM"}]}, {"binder": "GUGUGUGUGU (ssRNA)", "note": "[(GU)5 10-mer]", "values": [{"measurement": "Kd", "setting": "[6]", "value": "52.5 ± 7.2", "unit": "µM"}]}, {"binder": "CACACACACA (ssRNA)", "note": "[(CA)5 10-mer]", "values": [{"measurement": "binding result", "setting": "[7]", "value": "no binding"}]}]}
